Measured values published in patent US20190077863A1 (AERPIO PHARMACEUTICALS, published 2019).

Legend:
[1] = target: T1, Human VE-PTP (HPTP-β) containing first eight FN3 repeats with C-terminal His6 tag (Human ½ VE-PTP ECD) (human, UniProt P23467 23-820); experiment: ELISA, antigen coated at 1 µg/mL, antibody 1 µg/well
T1 construct: Produced in HEK293 cells and purified by the His tag; it was not cut off; also called Human Beta ½ ECD
T1 sequence: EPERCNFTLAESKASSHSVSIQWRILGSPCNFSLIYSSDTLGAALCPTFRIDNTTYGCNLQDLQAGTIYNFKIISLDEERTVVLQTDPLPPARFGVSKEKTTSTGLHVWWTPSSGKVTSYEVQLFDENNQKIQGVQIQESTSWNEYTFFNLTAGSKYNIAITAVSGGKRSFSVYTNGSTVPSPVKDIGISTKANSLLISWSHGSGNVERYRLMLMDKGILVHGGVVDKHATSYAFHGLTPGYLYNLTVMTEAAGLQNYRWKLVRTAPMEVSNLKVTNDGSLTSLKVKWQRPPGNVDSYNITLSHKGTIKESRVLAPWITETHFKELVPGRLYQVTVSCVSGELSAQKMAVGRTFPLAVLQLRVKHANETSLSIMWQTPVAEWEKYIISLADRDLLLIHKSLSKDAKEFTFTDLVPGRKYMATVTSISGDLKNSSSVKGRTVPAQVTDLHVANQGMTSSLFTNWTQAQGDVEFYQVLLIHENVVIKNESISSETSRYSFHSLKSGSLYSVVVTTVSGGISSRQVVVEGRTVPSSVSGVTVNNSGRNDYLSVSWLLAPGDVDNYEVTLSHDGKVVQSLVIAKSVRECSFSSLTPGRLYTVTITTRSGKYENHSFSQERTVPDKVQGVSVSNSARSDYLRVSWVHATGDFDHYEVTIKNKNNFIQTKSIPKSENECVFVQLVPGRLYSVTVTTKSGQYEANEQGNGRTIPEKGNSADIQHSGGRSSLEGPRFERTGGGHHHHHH
Procedure: (§1) HPTP-β, cyno PTP-β, and HPTP-η proteins were coated onto ELISA plates in coating buffer (pH 9.4). Each protein was prepared as a 1 μg/mL protein stock in 50 mM carbonate-bicarbonate. The coated proteins were aliquoted at a volume of 100 μL/well into sterile, clear, polystyrene, flat bottom 96-well plates. The plates were incubated overnight at 4° C. After overnight incubation, the plates were washed 3× with 200 μL/well of 1×PBS-T (PBS with 0.05% Tween 20). The immunizing protein was human VE-PTP (HPTP-β). The plates were then blocked with 200 μL/well of 5% blotting grade blocker non-fat dry milk in PBS-T and incubated for 1 hr at room temperature.
(§2) Primary antibody samples were prepared for the humanized variants and the negative control, anti-hCD20-hIgG4S228P, using 1 μg/well in 5% blotting grade blocker non-fat dry milk in PBS. Samples were tested in triplicates. The Fab antibody fragments were treated as the IgG antibodies. The plates were then washed 3× with PBS-T and 100 μL of primary antibody preparation was added in each well. The plates were then incubated for 1 hr at room temperature.
(§3) Then, […] Ultra TMB-ELISA was added in each well, and the plate was allowed to develop for 5 min at room temperature. After 5 min, 50 μL of 2 M sulfuric acid was added to each well to stop the reaction. The plates were then analyzed on a plate reader at an absorbance wavelength of 450 nm.

[2] = target: T2, Human HPTP-η with C-terminal His10 tag (Human HPTP-η ECD) (human, UniProt Q12913 36-975); experiment: ELISA, coated antigen
T2 construct: Produced in HEK293 cells; it was not cut off; also called Human PTPη; human PTP-η
T2 sequence: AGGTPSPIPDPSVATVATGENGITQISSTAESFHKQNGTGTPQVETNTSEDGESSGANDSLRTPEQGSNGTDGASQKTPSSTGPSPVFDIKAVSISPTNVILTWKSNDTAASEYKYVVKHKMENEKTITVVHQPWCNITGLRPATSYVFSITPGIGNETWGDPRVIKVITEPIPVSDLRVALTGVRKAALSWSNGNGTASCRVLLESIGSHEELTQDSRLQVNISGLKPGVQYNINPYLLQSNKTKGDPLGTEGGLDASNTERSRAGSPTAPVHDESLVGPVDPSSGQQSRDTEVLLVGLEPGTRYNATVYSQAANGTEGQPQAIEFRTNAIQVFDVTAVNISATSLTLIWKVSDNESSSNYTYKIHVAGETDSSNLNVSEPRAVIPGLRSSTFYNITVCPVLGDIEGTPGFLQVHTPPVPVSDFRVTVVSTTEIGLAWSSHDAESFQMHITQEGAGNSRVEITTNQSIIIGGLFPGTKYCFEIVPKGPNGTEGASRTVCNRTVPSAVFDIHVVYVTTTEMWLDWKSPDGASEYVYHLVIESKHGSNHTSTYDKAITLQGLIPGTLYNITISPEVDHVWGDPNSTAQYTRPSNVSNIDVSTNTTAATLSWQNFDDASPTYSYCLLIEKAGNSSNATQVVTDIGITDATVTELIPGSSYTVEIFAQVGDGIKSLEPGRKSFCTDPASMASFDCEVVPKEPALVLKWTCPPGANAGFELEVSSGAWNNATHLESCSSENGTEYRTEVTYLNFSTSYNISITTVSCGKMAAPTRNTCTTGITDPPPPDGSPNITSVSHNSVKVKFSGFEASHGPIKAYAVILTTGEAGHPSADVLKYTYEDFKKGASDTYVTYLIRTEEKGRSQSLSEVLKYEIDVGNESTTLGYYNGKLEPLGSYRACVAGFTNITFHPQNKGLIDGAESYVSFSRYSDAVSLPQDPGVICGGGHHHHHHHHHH
Procedure: as §1, §2, §3

[3] = target: T3, Cynomolgus VE-PTP (Cyno PTP-β) containing first eight FN3 repeats with C-terminal His10 tag (Cyno Beta ½ … (cynomolgus, UniProt P23467 25-817 (human entry))); experiment: ELISA, coated antigen
T3 construct: Produced in HEK293 cells; it was not cut off; also called Cyno VE-PTP
T3 chain: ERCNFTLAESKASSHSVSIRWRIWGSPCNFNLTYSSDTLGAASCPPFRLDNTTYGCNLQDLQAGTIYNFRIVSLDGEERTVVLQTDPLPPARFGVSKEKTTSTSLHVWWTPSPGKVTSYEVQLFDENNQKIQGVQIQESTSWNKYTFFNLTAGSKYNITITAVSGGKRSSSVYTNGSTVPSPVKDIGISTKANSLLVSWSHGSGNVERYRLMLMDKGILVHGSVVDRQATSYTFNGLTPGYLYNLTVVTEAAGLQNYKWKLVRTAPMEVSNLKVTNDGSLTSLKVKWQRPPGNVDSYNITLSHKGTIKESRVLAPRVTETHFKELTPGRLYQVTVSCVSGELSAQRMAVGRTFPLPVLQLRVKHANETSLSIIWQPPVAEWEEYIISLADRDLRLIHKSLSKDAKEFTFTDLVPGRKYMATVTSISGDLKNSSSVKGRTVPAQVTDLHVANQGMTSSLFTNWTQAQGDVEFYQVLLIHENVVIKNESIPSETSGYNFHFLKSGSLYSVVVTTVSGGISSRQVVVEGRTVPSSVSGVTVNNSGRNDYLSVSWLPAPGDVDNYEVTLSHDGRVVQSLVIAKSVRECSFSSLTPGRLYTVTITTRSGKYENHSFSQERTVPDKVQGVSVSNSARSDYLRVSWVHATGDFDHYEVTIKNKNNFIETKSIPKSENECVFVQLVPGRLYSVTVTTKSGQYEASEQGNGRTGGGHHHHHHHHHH
Procedure: as §1, §2, §3

Tie2 = target: T4, Tie2 (human, UniProt Q02763 23-1124); experiment: immunoprecipitation western blot, HUVECs
T4 construct: Named only as 'Tie2 (R2/T2)' in the immunoprecipitation experiment with HUVECs; also called T2
T4 sequence (Q02763 23-1124 limits assumed): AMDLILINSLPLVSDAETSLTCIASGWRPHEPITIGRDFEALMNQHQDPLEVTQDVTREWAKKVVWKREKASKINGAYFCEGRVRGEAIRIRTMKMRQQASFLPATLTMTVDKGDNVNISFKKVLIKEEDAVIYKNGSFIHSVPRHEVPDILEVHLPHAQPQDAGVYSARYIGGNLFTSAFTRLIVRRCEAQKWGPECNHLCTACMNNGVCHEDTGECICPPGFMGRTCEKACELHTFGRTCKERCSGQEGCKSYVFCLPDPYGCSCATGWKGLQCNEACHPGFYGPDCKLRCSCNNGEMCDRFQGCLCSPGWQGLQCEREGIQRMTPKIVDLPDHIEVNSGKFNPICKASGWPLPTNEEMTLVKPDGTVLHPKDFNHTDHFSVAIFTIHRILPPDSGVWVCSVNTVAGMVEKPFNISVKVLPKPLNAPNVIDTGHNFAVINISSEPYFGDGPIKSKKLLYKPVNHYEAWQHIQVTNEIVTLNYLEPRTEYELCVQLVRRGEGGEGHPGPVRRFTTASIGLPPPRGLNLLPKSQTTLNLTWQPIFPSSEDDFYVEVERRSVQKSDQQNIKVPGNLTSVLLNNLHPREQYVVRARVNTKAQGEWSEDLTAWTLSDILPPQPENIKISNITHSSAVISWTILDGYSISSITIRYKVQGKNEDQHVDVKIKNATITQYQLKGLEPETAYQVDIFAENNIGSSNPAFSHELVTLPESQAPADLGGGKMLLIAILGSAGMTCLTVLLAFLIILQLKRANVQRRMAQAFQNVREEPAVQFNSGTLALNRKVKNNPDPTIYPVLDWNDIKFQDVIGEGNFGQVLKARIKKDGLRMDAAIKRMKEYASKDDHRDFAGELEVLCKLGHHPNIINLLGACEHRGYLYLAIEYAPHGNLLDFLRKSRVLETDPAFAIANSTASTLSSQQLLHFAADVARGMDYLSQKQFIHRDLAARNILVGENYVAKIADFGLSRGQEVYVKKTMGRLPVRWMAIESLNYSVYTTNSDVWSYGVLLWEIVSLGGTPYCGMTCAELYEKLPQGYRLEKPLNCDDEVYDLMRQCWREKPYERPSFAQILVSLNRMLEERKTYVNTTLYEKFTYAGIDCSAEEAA

VEGFR2 = target: T5, VEGFR2 (human, UniProt P35968 20-1356); experiment: immunoprecipitation western blot, HUVECs
T5 construct: Named only as 'VEGFR2; (R2/T2)' in the immunoprecipitation experiment with HUVECs
T5 sequence (P35968 20-1356 limits assumed): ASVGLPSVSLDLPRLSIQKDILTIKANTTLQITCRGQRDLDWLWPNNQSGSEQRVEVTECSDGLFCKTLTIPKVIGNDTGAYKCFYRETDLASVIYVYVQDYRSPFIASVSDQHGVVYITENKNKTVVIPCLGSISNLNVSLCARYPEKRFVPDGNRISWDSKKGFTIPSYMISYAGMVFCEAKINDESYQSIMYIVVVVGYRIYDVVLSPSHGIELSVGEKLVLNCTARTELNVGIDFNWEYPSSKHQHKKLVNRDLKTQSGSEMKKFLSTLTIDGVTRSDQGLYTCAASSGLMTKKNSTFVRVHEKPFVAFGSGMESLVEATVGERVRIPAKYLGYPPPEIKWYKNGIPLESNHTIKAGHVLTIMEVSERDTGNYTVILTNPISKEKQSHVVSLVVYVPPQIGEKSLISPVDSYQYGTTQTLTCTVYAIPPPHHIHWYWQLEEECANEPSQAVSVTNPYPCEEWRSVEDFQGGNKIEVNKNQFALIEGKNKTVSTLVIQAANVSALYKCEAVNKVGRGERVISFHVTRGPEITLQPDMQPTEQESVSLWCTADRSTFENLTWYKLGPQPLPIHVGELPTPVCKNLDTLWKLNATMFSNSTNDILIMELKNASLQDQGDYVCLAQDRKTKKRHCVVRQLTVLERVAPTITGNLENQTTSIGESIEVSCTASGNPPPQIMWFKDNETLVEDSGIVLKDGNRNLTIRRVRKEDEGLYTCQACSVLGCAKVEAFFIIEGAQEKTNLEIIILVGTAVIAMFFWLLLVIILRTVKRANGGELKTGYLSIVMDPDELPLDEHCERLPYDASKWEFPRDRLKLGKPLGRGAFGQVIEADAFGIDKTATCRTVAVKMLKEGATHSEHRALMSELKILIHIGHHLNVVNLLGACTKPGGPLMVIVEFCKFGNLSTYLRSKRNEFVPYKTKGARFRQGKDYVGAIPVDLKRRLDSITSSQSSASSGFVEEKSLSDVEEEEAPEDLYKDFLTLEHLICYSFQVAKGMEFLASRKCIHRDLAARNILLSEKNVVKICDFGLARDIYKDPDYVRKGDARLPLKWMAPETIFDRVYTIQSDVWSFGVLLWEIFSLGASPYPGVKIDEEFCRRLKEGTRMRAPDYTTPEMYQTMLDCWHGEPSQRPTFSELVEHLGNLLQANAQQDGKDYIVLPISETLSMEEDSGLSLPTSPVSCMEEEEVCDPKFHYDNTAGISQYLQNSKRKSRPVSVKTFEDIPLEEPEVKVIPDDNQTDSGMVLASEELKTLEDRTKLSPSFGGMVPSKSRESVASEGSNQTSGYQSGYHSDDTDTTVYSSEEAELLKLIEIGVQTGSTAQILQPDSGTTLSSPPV

B1: murine monoclonal antibody R15E6 (antibody, V domains shown)
VH: EVQLVETGGGLVQPKGSMKLSCAASGFTFNANAMNWIRQAPGKGLEWVARIRTKSNNYATYYAGSVKDRFTISRDDAQNMLYLQMNDLKTEDTAMYYCVRDYYGSSAWITYWGQGTLVTVSA
VL: DIVMTQSHKFMSTSVGDRVSITCKASQHVGTAVAWYQQKPDQSPKQLIYWASTRHTGVPDRFTGSGSGTDFTLTISNVQSEDLADYFCQQYSSYPFTFGSGTKLEIK
notes: Murine monoclonal antibody of hybridoma ATCC PTA-7580, 150 kDa; also called Parental; parental antibody
Question: For B1, which “ELISA value (absorbance at 450 nm)” value [1] is on record?
Answer: The value was 2.43.

Question: Does B1 bind [2]?
Answer: Result: no binding (tested: <=0.2; 1 µg/well)

Question: Does B1 bind [3]?
Answer: Result: no binding (tested: <=0.2; 1 µg/well)

Question: Does B1 bind (Tie2)?
Answer: Result: no binding

Question: Does B1 bind (VEGFR2)?
Answer: Result: no binding
